Amyloid nucleation score data for 138 substances are collected here from the supplement of paper PMC12042874.

± gives the uncertainty stated by the source.

This data set is described as follows: amyloid nucleation score (Sup35N fusion, yeast selection) (log enrichment); library NNK2; higher = more nucleation; inactive = no reads after selection. In a few lines:
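On medium lacking adenine and uracil, psi-negative yeast expressing peptides of 20 random codons fused to Sup35N were grown 7 days at 30°C after a 24-hour induction with 100 μM copper sulfate. Illumina sequencing of input and output plasmid inserts gave the reads, and sequences under 100 input reads were excluded. The nucleation score is the DiMSum log enrichment of output over input reads, centred on the mode score of non-aggregating sequences.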

On to SFGHHPDYRNVMVESYNRMV, for which the amyloid nucleation score is 0.259 ± 0.23. As to HSSSDVCT, the amyloid nucleation score is 5.295 ± 0.049. LSLNFLPYWLPQARCL: the amyloid nucleation score stood at 5.06 ± 0.099. Consider MFGHHKS, for which the amyloid nucleation score was -0.5 ± 0.63.

As for VLFAWSASDVIVV, the amyloid nucleation score stood at 0.639 ± 0.33. With TSFFPIILKRVPSIKLGTRK, the amyloid nucleation score entry is “inactive”. With YRPNN, the amyloid nucleation score worked out at 2.43 ± 0.14. ITKAASTWDLLFFVRQVCRT displayed an amyloid nucleation score of 0.353 ± 0.61. Turning to CGKCSVCG, the amyloid nucleation score turned out to be 0.502 ± 0.27. Substance LCNYLFSFEQMRNN displayed an amyloid nucleation score of -0.124 ± 0.42. RMIYGSRRFDVDIFYFGIRN gave an amyloid nucleation score of 4.24 ± 0.074. On to SFYLLCLSFMSLCWASRLVV, for which the amyloid nucleation score turned out to be 4.83 ± 0.073.

Regarding GNRYSLCEAYATYLFSLDWY, the amyloid nucleation score entry is “inactive”. Substance CIGIWDAIEVVENREL yielded an amyloid nucleation score of -0.545 ± 0.64. The substance MSLHPMRLHQWRPESIVLTE gave an amyloid nucleation score of 0.365 ± 0.66. The substance ANVWRSLFAFTIANVTIPR registered an amyloid nucleation score of 5.714 ± 0.045.

Substance NEVVFRVYK came in with an amyloid nucleation score of 3.22 ± 0.068. As for GARASQRCESVGLPLEYVSR, the figure is 0.974 ± 0.29. As for GVYKVGMVPWFIQFSDVGGR, the figure is 5.73 ± 0.068. On to SYIGFVSIGSNMNRCSFDKF, for which the amyloid nucleation score is -0.116 ± 0.29.

Take REVWCRISLKFFYMGDLFVR: the amyloid nucleation score was 0.008 ± 0.8.

In the case of CNIVPYRPINGWIPDVLLED, the amyloid nucleation score was -0.275 ± 0.79. On to PSLTVPGVSRYCFS, for which the amyloid nucleation score was -1.29 ± 0.75.

Substance NDGCIGVFFDRMVPDWVTTL came in with an amyloid nucleation score of -0.477 ± 0.48. SSIVSSPVCPLCGWGWF came in with an amyloid nucleation score of 5.55 ± 0.069. In turn, LFSHFYSYDY registered an amyloid nucleation score of -0.317 ± 1.1.

In turn, QTTVHLTSLHMAGSLCV registered an amyloid nucleation score of -0.021 ± 0.79. For NTGSLRYWHCVSSGNSTTGR, the amyloid nucleation score result is “inactive”. Substance CIFCYANVFAYFTTKGLFVQ showed an amyloid nucleation score of -0.885 ± 0.38.

On to LRIICMSTMWRKCFRGIATA, for which the amyloid nucleation score was -0.195 ± 0.39. Consider MSGAFVYAWCLRTGKCTQAG, for which the amyloid nucleation score was -0.082 ± 0.27. Regarding SHAIHRCVGWFGVWTGTLFI, the amyloid nucleation score stood at 3.69 ± 0.083.

Turning to LPHCL, the amyloid nucleation score was 1.36 ± 0.24. As for LYDVRGEMSNVGWFM, the amyloid nucleation score was -0.052 ± 0.54.

The substance MRGVTLYDYFDGIRIWRPLR registered an amyloid nucleation score of 3.76 ± 0.12. As for WVAFANFVHGLMTLGHWGSR, the figure is 1.28 ± 0.27; as for LSKMWPPIHTTLIPLTDAER, 4.84 ± 0.06; as for VENVTDGAVSARYDDMDTSS, -0.179 ± 0.3. The value for CYSLWRFEQMKLGMKLRGMT was 0.003 ± 0.43; that for EFIMTCAQVPRTFDVHSNRS was 6.479 ± 0.054. Take SAGEKWWKGMHYARGRPVRR: the amyloid nucleation score amounted to 0.726 ± 0.2. As for FSEPWKWYYADLVFLSVTWL, the entry is “inactive”; as for VCVGYFCC, 5.789 ± 0.024. As for QLCFA, the amyloid nucleation score is -0.031 ± 0.47. LTLLYIWSKDAVRYLLGNMD had an amyloid nucleation score of -1.09 ± 1.1.

Substance CGFFVNEFTDLAWSYSLAVN had an amyloid nucleation score of -0.117 ± 0.74. The value for YYLSNPRGVHISIYREHNMS was 6.392 ± 0.043; that for ILLVILLTRIVKRSFFYRGF was “inactive”; that for IETNTSGSPIVPKDDLYNSY was -0.672 ± 0.55. In the case of NSSVCVRNRCGVWIDLKGII, the amyloid nucleation score turned out to be 5.06 ± 0.095. For the substance RSKFLFYIYSGFEIRRKINT, the amyloid nucleation score entry is “inactive”.

In the case of GKINDSGTSYSEKRSGPCRL, the amyloid nucleation score was -0.874 ± 0.25. As for HKMADSTNDSNRLEFDMFNE, the figure is -0.881 ± 0.78. RLNHGVSRSYDPPRRWAGSR: the amyloid nucleation score stood at 0.07 ± 0.61. LQLCCAMVS registered an amyloid nucleation score of 0.883 ± 0.44. The value for YEISSLRSFRSVLNWYMSGS was 4.6 ± 0.052.

Consider ASSTNVYLIIIGLWSAAM, for which the amyloid nucleation score is 2.46 ± 0.18. As for FTGCVYSVFSNQQ, the amyloid nucleation score stood at 4.76 ± 0.11. As for YNSVVADKWCSFSK, the figure is 0.155 ± 1.1; as for TFCVRQLYLSML, 0.833 ± 0.2. As for TEQICGNMWSLYESFNFINS, the amyloid nucleation score was -0.474 ± 1.1. On to VNSLFDWNRAKFLIR, for which the amyloid nucleation score was -1.39 ± 0.79.

As to MHGFNDAYFLCDVSAQGLV, the amyloid nucleation score is -0.128 ± 0.28. The substance GYNQLLTQGKPGYCFRISRV displayed an amyloid nucleation score of -1.29 ± 0.78. The value for SGVLSLGGVQSWNSLLRWDN was -0.476 ± 0.44; that for SRMFVFNVGVIEFWKLGGYN was -0.716 ± 0.64.

For the substance YVSEQTHPMVIMYHFLRQHQ, the amyloid nucleation score is -0.181 ± 0.5. In the case of GIQGLRVWFAYMFPSVVLLC, the amyloid nucleation score was -0.987 ± 0.78. The substance GIGFKWGTILLKSLGNIYSQ gave an amyloid nucleation score of -0.263 ± 0.76.

Consider YFYIF, for which the amyloid nucleation score came to 2.03 ± 0.12. As for RSDMCSAMIFWSELVKWQDG, the figure is 3.84 ± 0.091.

Substance DIMVERGAFIGLKAD had an amyloid nucleation score of 5.41 ± 0.068. With SEWSQKRGLVYTVQEFQKLY, the amyloid nucleation score entry was “inactive”.

As to FLNPFNHREHPRVED, the amyloid nucleation score is 0.775 ± 0.62. For SSGLTRFKYRRLRSIVFELG, the amyloid nucleation score entry is “inactive”. Turning to CVFKVVPLVL, the amyloid nucleation score was 0.005 ± 1. FNSLGFRLTSCIDRVTLVLW: the amyloid nucleation score result is “inactive”. As for TNLMAFLRPFAVVTRND, the figure is -0.355 ± 0.76.

As for NWMHC, the amyloid nucleation score stood at 1.39 ± 0.42. With FSFNIPQFINV, the amyloid nucleation score entry is “inactive”. As for LCYSFYPQSVKSFEFPNYFY, the entry is “inactive”; as for SWPVRFQLNATGSPVGRLWT, -0.334 ± 0.76. Take SAWRVCYRTNENCAPFMYVL: the amyloid nucleation score is -1.22 ± 0.75. In turn, LLCCIIIIGMVLGLMTDPEW registered an amyloid nucleation score of -0.781 ± 0.76. The value for VSYGVWSCIRGL was -0.324 ± 1.1; that for TLVNCVSMWWALHSVANGNG was 3.3 ± 0.11. The value for GNFVHTYNIK was 0.526 ± 0.66; that for NVLRMMC was -0.286 ± 0.27. RFCHTSRGSGGLGRLCQLAL registered an amyloid nucleation score of 0.157 ± 1. As for TDLNHACCSNPLSF, the figure is -0.468 ± 0.61; as for KGVCRNMAGGKYANMRYGGV, 5.09 ± 0.051. YSFLHVIGANKFARACNNWS displayed an amyloid nucleation score of -0.565 ± 0.78. WGHFAMVRA showed an amyloid nucleation score of 0.426 ± 0.8. In turn, SCMFYYCCTDTYKVPYSDAM returned an amyloid nucleation score of 7.759 ± 0.067. The value for LGMSGCVCSYVYLRGFGLIL was -0.658 ± 0.37; that for KTPGSHVGLWSMPGRSYPSA was 0.401 ± 0.45; that for KRTWFERLWSSSNRVLGCLC was 4.27 ± 0.051. STVTELLRYPAHNFGEVHIL had an amyloid nucleation score of 4.702 ± 0.047. In turn, YKFSPIHNSRCLNSLHWPKA yielded an amyloid nucleation score of 0.439 ± 0.74. Take ERMFNMIALVRRAGGERNRT: the amyloid nucleation score is 4.43 ± 0.059. For SVFVNCNHWYIYSPWPSKRN, the amyloid nucleation score was 8.715 ± 0.047. LSYSVNWWPRSGWSYYVNEF: the amyloid nucleation score is -0.176 ± 1.1. The value for ERYLCVVDMEIKGRALRKRW was -0.144 ± 0.44; that for TMYWTAMMISGDLACQIGSR was 6.127 ± 0.046; that for YLGVSSCLMSSSGRSLASTL was 4.39 ± 0.09. As for PLHHSLRTYVALGLR, the figure is 0.306 ± 0.65; as for TLAYMNGVA, -0.928 ± 0.63; as for RADVRMFLTRGLKVDFG, -0.322 ± 0.49. YSFMS: the amyloid nucleation score is -0.458 ± 0.27. GVRMQLFGTLMSSAHQVRVG: the amyloid nucleation score is 0.69 ± 0.17. The substance YTRSYGPFPSHLVNLARNLS came in with an amyloid nucleation score of -0.905 ± 0.32. In the case of FVSMNAGVYVGHRGHIMEFI, the amyloid nucleation score entry is “inactive”. The value for NQLIGHVFSFVDKSKSFSSS was 0.243 ± 0.56; that for NAGVYLFYMCICYVKYFFYM was -0.87 ± 0.78. Substance CLFRLSSCVPTWLMQLTMWG had an amyloid nucleation score of 0.244 ± 0.25. The value for MYPRPVYNIKLFLKEVWGQY was 6.933 ± 0.046; that for FNFYKWYYIGLTAISFVYTV was -1.51 ± 1.

As to YSWWW, the amyloid nucleation score was found to be 1.15 ± 0.66.

As to FSSQFHLRAYNTIRCSLDDF, the amyloid nucleation score amounted to 0.534 ± 0.8. YSSFFHFRVCNLCRWGSVSN showed an amyloid nucleation score of 0.121 ± 0.18. In the case of GVKST, the amyloid nucleation score stood at 0.422 ± 0.74. SLMDLDFPLTSR: the amyloid nucleation score was -0.334 ± 0.61. For the substance LVNKG, the amyloid nucleation score was 3.15 ± 0.064. SMNVYVDGFCWLAHVLNVVW returned an amyloid nucleation score of 6.928 ± 0.035. For ASFFDTVNCSWFSGIFVMGF, the amyloid nucleation score turned out to be 1.59 ± 0.21.

Substance MVSCRN registered an amyloid nucleation score of 0.237 ± 1.

Regarding RIRVVPKWSFISNRRNCGKL, the amyloid nucleation score is 4.25 ± 0.054. On to MCTGRFFSITSYGCKESSYL, for which the amyloid nucleation score is 1.49 ± 0.26. In turn, LLPIGEVKE registered an amyloid nucleation score of -1.17 ± 0.44. The value for KYFRICRVYLNTLLPLVTLV was “inactive”; that for YRPRDCISRVTYMRTVIVIL was -0.121 ± 1.1; that for TFRYFGDWNLQRGML was 0.85 ± 0.52.

The substance RCILASAGWAIVGKNCEAPQ had an amyloid nucleation score of 0.647 ± 0.26.

In turn, LRNHSHA registered an amyloid nucleation score of 0.685 ± 0.41. For LRSGLSLGSNLPKGGNIRSL, the amyloid nucleation score was -0.531 ± 1.1.

DKYSIVSSGPYMSNKSLVRR displayed an amyloid nucleation score of -0.109 ± 0.79. LFLRAHILGTVTCIRDFAPG came in with an amyloid nucleation score of 1.14 ± 0.18. In turn, LSLVEIFLGMRSLEVFCWVE returned an amyloid nucleation score of -0.709 ± 0.28.
